Test results reported in paper PMC11417369, “DNA sequence and chromatin differentiate sequence-specific transcription factor binding in the human malaria parasite Plasmodium falciparum”.

Assays:
[1] = biological target: T1, SIP2 D1 (Plasmodium falciparum, UniProt C6KSN9 177-235); test: gcPBM; about 25 ug protein; PBS, 1% milk, 0.2 mg/ml BSA, salmon testes DNA, 0.03% Triton X-100; conditions: tags: N-terminal GST (pGEX-4T-1), kept; label: surface-attached array probe
T1 sequence: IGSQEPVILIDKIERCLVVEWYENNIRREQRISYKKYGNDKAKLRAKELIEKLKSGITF

[2] = biological target: AP2-I D3 (Plasmodium falciparum, UniProt Q8IJW6 910-1027); test: as above; conditions: tags: N-terminal GST (pGEX-4T-1), kept; label: surface-attached array probe

| Binder | binding signal [1] | binding signal [2] |
| --- | --- | --- |
| GTGCAC_negctrl_site217 (dsDNA) DNA 1: TGACTTTGTTGAATTTGTCCTCTTAACTCATAATAT DNA 2: ATATTATGAGTTAAGAGGACAAATTCAACAAAGTCA | 6.72 ln median PBM intensity, better of two orientations | 7.06 ln median PBM intensity, better of two orientations |
| GTGCAC_negctrl_site127 (dsDNA) DNA 1: ATATATACATATACTATATCTTTTATTTTTATTATT DNA 2: AATAATAAAAATAAAAGATATAGTATATGTATATAT | – | 7.2 ln median PBM intensity, better of two orientations |
| GTGCAC_negctrl_site86 (dsDNA) DNA 1: ATTTTTTTATACAATTTTATATATTAAATATTATAA DNA 2: TTATAATATTTAATATATAAAATTGTATAAAAAAAT | – | 7.23 ln median PBM intensity, better of two orientations |
| GTGCAC_negctrl_site277 (dsDNA) DNA 1: TTTTTTAAATATTATTTTTATGAGTAAATATATTAT DNA 2: ATAATATATTTACTCATAAAAATAATATTTAAAAAA | – | 7.22 ln median PBM intensity, better of two orientations |
| GTGCAC_negctrl_site688 (dsDNA) DNA 1: ATAATTATTTAATATATATATATTATTTCGAATGTT DNA 2: AACATTCGAAATAATATATATATATTAAATAATTAT | – | 7.24 ln median PBM intensity, better of two orientations |
| GTGCAC_negctrl_site296 (dsDNA) DNA 1: ATTTAAAATAGAAGTTATATTTATATGGGTGAAAAA DNA 2: TTTTTCACCCATATAAATATAACTTCTATTTTAAAT | – | 7.29 ln median PBM intensity, better of two orientations |
| GTGCAC_negctrl_site660 (dsDNA) DNA 1: AATTAATTTATTTTATAAATAGTTAGATCGTCATAA DNA 2: TTATGACGATCTAACTATTTATAAAATAAATTAATT | 6.78 ln median PBM intensity, better of two orientations | 7.02 ln median PBM intensity, better of two orientations |
| GTGCAC_negctrl_site665 (dsDNA) DNA 1: TTTTAAATCTTATATTCCCCACATAAATAGCTCTCT DNA 2: AGAGAGCTATTTATGTGGGGAATATAAGATTTAAAA | 6.72 ln median PBM intensity, better of two orientations | 7.16 ln median PBM intensity, better of two orientations |
| GTGCAC_negctrl_site8 (dsDNA) DNA 1: TTTTGTAGCAAAAAATAGGAAAAAAAAAAATTAAAT DNA 2: ATTTAATTTTTTTTTTTCCTATTTTTTGCTACAAAA | – | 7.26 ln median PBM intensity, better of two orientations |
| GTGCAC_site10258 (dsDNA) DNA 1: GCGTGTGTACAATGAGTGCATATCTAAAGGGAAGAT DNA 2: ATCTTCCCTTTAGATATGCACTCATTGTACACACGC | 9.38 ln median PBM intensity, better of two orientations | 10 ln median PBM intensity, better of two orientations |
| GTGCAC_negctrl_site349 (dsDNA) DNA 1: AAATAAAAATAAAATAAAATAAAATTAAATGGGAAT DNA 2: ATTCCCATTTAATTTTATTTTATTTTATTTTTATTT | – | 7.26 ln median PBM intensity, better of two orientations |
| GTGCAC_negctrl_site586 (dsDNA) DNA 1: ATATGATTATTATTATATAAATTATAAAGTCTAATA DNA 2: TATTAGACTTTATAATTTATATAATAATAATCATAT | 6.69 ln median PBM intensity, better of two orientations | 6.95 ln median PBM intensity, better of two orientations |
| GTGCAC_negctrl_site353 (dsDNA) DNA 1: GAATATTTATGATGAACTATTAATTAATTTTACATA DNA 2: TATGTAAAATTAATTAATAGTTCATCATAAATATTC | 6.72 ln median PBM intensity, better of two orientations | 6.76 ln median PBM intensity, better of two orientations |
| GTGCAC_negctrl_site108 (dsDNA) DNA 1: TTGTTTAACTTGTTAAATATAATGTATCTGTGGATA DNA 2: TATCCACAGATACATTATATTTAACAAGTTAAACAA | 6.74 ln median PBM intensity, better of two orientations | 7.12 ln median PBM intensity, better of two orientations |
| GTGCAC_site10664 (dsDNA) DNA 1: TATTCATATTTAAAGGTGCAATATTTATTTTGTACA DNA 2: TGTACAAAATAAATATTGCACCTTTAAATATGAATA | 9.97 ln median PBM intensity, better of two orientations | 11.2 ln median PBM intensity, better of two orientations |
| GTGCAC_negctrl_site659 (dsDNA) DNA 1: TTGTTAATATGATAAAAGAGGAATATTCTCTTCCTA DNA 2: TAGGAAGAGAATATTCCTCTTTTATCATATTAACAA | 6.7 ln median PBM intensity, better of two orientations | 6.7 ln median PBM intensity, better of two orientations |
| GTGCAC_negctrl_site608 (dsDNA) DNA 1: TAATGAGGAAAAAGTGTGTTAAGATTTTATAATTTA DNA 2: TAAATTATAAAATCTTAACACACTTTTTCCTCATTA | – | 7.28 ln median PBM intensity, better of two orientations |
| GTGCAC_negctrl_site458 (dsDNA) DNA 1: ATGTAATTATAAGATTAATATACATAATTATATGTA DNA 2: TACATATAATTATGTATATTAATCTTATAATTACAT | 6.75 ln median PBM intensity, better of two orientations | 7.02 ln median PBM intensity, better of two orientations |
| GTGCAC_negctrl_site647 (dsDNA) DNA 1: ATCAGTGATTAGGTTATATATAAAAATGAACTAATA DNA 2: TATTAGTTCATTTTTATATATAACCTAATCACTGAT | 6.8 ln median PBM intensity, better of two orientations | 7.28 ln median PBM intensity, better of two orientations |
| GTGCAC_negctrl_site84 (dsDNA) DNA 1: TTGAGCATAAAATTTGGAAACCTCAATCGGACAAAA DNA 2: TTTTGTCCGATTGAGGTTTCCAAATTTTATGCTCAA | 6.59 ln median PBM intensity, better of two orientations | 6.92 ln median PBM intensity, better of two orientations |
